Experimental data taken from US20240058467A1 (SUTRO BIOPHARMA, published 2024).

Target: ROR1 antigen expressed on ROR1 positive Ntera-2 cells (UniProt Q01973 30-937)
Experiment: cell-based or functional assay

Row | Binder | NTERA-2 cell killing EC50 [nM] | NTERA-2 cell killing Span (%)
1 | Conjugate 30: D04-Y180F404/K42/E161-LP14 (antibody, human IgG1, kappa, pAMF at K42 and E161 (printed * in the sequence), linked to LP14; pAMF at Y180 and F404 (printed * in the sequence), linked to LP14) heavy: MEVQLVESGGGLVQPGGSLRLSCAASGFNISDYDIHWVRQAPGKGLEWVGGIDPADGSTDYADSVKGRFTISADTSKNTAYLQMNSLRAEDTAVYYCARDYGVYDYWGQGTLVTVSSASTKGPSVFPLAPSSKSTSGGTAALGCLVKDYFPEPVTVSWNSGALTSGVHTFPAVLQSSGLSLSSVVTVPSSSLGTQTYICNVNHKPSNTKVDKKVEPKSCDKTHTCPPCPAPELLGGPSVFLFPPKPKDTLMISRTPEVTCVVVDVSHEDPEVKFNWYVDGVEVHNAKTKPREEQYNSTYRVVSVLTVLHQDWLNGKEYKCKVSNKALPAPIEKTISKAKGQPREPQVYTLPPSREEMTKNQVSLTCLVKGFYPSDIAVEWESNGQPENNYKTTPPVLDSDGSFLYSKLTVDKSRWQQGNVFSCSVMHEALHNHYTQKSLSLSPGK light: MDIQMTQSPSSLSASVGDRVTITCRASQDVNTAVAWYQQKPGAPKLLIYSASFLYSGVPSRFSGSRSGTDFTLTISSLQPEDFATYYCQQHYTTPPTFGQGTKVEIKRTVAAPSVFIFPPSDEQLKSGTASVVCLLNNFYPREAKVQWKVDNALQSGNSQSVTEQDSKDSTYSLSSTLTLSKADYEKHKVYACEVTHQGLSSPVTKSFNRGEC | 0.02 | 88
2 | Conjugate 31: D04-Y180F404/K42/E161-LP15 (antibody, human IgG1, kappa, pAMF at K42 and E161 (printed * in the sequence), linked to LP15; pAMF at Y180 and F404 (printed * in the sequence), linked to LP15) heavy: MEVQLVESGGGLVQPGGSLRLSCAASGFNISDYDIHWVRQAPGKGLEWVGGIDPADGSTDYADSVKGRFTISADTSKNTAYLQMNSLRAEDTAVYYCARDYGVYDYWGQGTLVTVSSASTKGPSVFPLAPSSKSTSGGTAALGCLVKDYFPEPVTVSWNSGALTSGVHTFPAVLQSSGLSLSSVVTVPSSSLGTQTYICNVNHKPSNTKVDKKVEPKSCDKTHTCPPCPAPELLGGPSVFLFPPKPKDTLMISRTPEVTCVVVDVSHEDPEVKFNWYVDGVEVHNAKTKPREEQYNSTYRVVSVLTVLHQDWLNGKEYKCKVSNKALPAPIEKTISKAKGQPREPQVYTLPPSREEMTKNQVSLTCLVKGFYPSDIAVEWESNGQPENNYKTTPPVLDSDGSFLYSKLTVDKSRWQQGNVFSCSVMHEALHNHYTQKSLSLSPGK light: MDIQMTQSPSSLSASVGDRVTITCRASQDVNTAVAWYQQKPGAPKLLIYSASFLYSGVPSRFSGSRSGTDFTLTISSLQPEDFATYYCQQHYTTPPTFGQGTKVEIKRTVAAPSVFIFPPSDEQLKSGTASVVCLLNNFYPREAKVQWKVDNALQSGNSQSVTEQDSKDSTYSLSSTLTLSKADYEKHKVYACEVTHQGLSSPVTKSFNRGEC | 0.018 | 87
3 | Conjugate 32: D04-Y180F404/K42/E161-LP16 (antibody, human IgG1, kappa, pAMF at K42 and E161 (printed * in the sequence), linked to LP16; pAMF at Y180 and F404 (printed * in the sequence), linked to LP16) heavy: MEVQLVESGGGLVQPGGSLRLSCAASGFNISDYDIHWVRQAPGKGLEWVGGIDPADGSTDYADSVKGRFTISADTSKNTAYLQMNSLRAEDTAVYYCARDYGVYDYWGQGTLVTVSSASTKGPSVFPLAPSSKSTSGGTAALGCLVKDYFPEPVTVSWNSGALTSGVHTFPAVLQSSGLSLSSVVTVPSSSLGTQTYICNVNHKPSNTKVDKKVEPKSCDKTHTCPPCPAPELLGGPSVFLFPPKPKDTLMISRTPEVTCVVVDVSHEDPEVKFNWYVDGVEVHNAKTKPREEQYNSTYRVVSVLTVLHQDWLNGKEYKCKVSNKALPAPIEKTISKAKGQPREPQVYTLPPSREEMTKNQVSLTCLVKGFYPSDIAVEWESNGQPENNYKTTPPVLDSDGSFLYSKLTVDKSRWQQGNVFSCSVMHEALHNHYTQKSLSLSPGK light: MDIQMTQSPSSLSASVGDRVTITCRASQDVNTAVAWYQQKPGAPKLLIYSASFLYSGVPSRFSGSRSGTDFTLTISSLQPEDFATYYCQQHYTTPPTFGQGTKVEIKRTVAAPSVFIFPPSDEQLKSGTASVVCLLNNFYPREAKVQWKVDNALQSGNSQSVTEQDSKDSTYSLSSTLTLSKADYEKHKVYACEVTHQGLSSPVTKSFNRGEC | 0.023 | 86
4 | Conjugate 33: D04-Y180F404/K42/E161-LP17 (antibody, human IgG1, kappa, pAMF at K42 and E161 (printed * in the sequence), linked to LP17; pAMF at Y180 and F404 (printed * in the sequence), linked to LP17) heavy: MEVQLVESGGGLVQPGGSLRLSCAASGFNISDYDIHWVRQAPGKGLEWVGGIDPADGSTDYADSVKGRFTISADTSKNTAYLQMNSLRAEDTAVYYCARDYGVYDYWGQGTLVTVSSASTKGPSVFPLAPSSKSTSGGTAALGCLVKDYFPEPVTVSWNSGALTSGVHTFPAVLQSSGLSLSSVVTVPSSSLGTQTYICNVNHKPSNTKVDKKVEPKSCDKTHTCPPCPAPELLGGPSVFLFPPKPKDTLMISRTPEVTCVVVDVSHEDPEVKFNWYVDGVEVHNAKTKPREEQYNSTYRVVSVLTVLHQDWLNGKEYKCKVSNKALPAPIEKTISKAKGQPREPQVYTLPPSREEMTKNQVSLTCLVKGFYPSDIAVEWESNGQPENNYKTTPPVLDSDGSFLYSKLTVDKSRWQQGNVFSCSVMHEALHNHYTQKSLSLSPGK light: MDIQMTQSPSSLSASVGDRVTITCRASQDVNTAVAWYQQKPGAPKLLIYSASFLYSGVPSRFSGSRSGTDFTLTISSLQPEDFATYYCQQHYTTPPTFGQGTKVEIKRTVAAPSVFIFPPSDEQLKSGTASVVCLLNNFYPREAKVQWKVDNALQSGNSQSVTEQDSKDSTYSLSSTLTLSKADYEKHKVYACEVTHQGLSSPVTKSFNRGEC | 0.019 | 87
5 | Conjugate 34: D04-Y180F404/K42/E161-LP18 (antibody, human IgG1, kappa, pAMF at K42 and E161 (printed * in the sequence), linked to LP18; pAMF at Y180 and F404 (printed * in the sequence), linked to LP18) heavy: MEVQLVESGGGLVQPGGSLRLSCAASGFNISDYDIHWVRQAPGKGLEWVGGIDPADGSTDYADSVKGRFTISADTSKNTAYLQMNSLRAEDTAVYYCARDYGVYDYWGQGTLVTVSSASTKGPSVFPLAPSSKSTSGGTAALGCLVKDYFPEPVTVSWNSGALTSGVHTFPAVLQSSGLSLSSVVTVPSSSLGTQTYICNVNHKPSNTKVDKKVEPKSCDKTHTCPPCPAPELLGGPSVFLFPPKPKDTLMISRTPEVTCVVVDVSHEDPEVKFNWYVDGVEVHNAKTKPREEQYNSTYRVVSVLTVLHQDWLNGKEYKCKVSNKALPAPIEKTISKAKGQPREPQVYTLPPSREEMTKNQVSLTCLVKGFYPSDIAVEWESNGQPENNYKTTPPVLDSDGSFLYSKLTVDKSRWQQGNVFSCSVMHEALHNHYTQKSLSLSPGK light: MDIQMTQSPSSLSASVGDRVTITCRASQDVNTAVAWYQQKPGAPKLLIYSASFLYSGVPSRFSGSRSGTDFTLTISSLQPEDFATYYCQQHYTTPPTFGQGTKVEIKRTVAAPSVFIFPPSDEQLKSGTASVVCLLNNFYPREAKVQWKVDNALQSGNSQSVTEQDSKDSTYSLSSTLTLSKADYEKHKVYACEVTHQGLSSPVTKSFNRGEC | 0.373 | 73
6 | Conjugate 35: D04-Y180F404/K42/E161-LP19 (antibody, human IgG1, kappa, pAMF at K42 and E161 (printed * in the sequence), linked to LP19; pAMF at Y180 and F404 (printed * in the sequence), linked to LP19) heavy: MEVQLVESGGGLVQPGGSLRLSCAASGFNISDYDIHWVRQAPGKGLEWVGGIDPADGSTDYADSVKGRFTISADTSKNTAYLQMNSLRAEDTAVYYCARDYGVYDYWGQGTLVTVSSASTKGPSVFPLAPSSKSTSGGTAALGCLVKDYFPEPVTVSWNSGALTSGVHTFPAVLQSSGLSLSSVVTVPSSSLGTQTYICNVNHKPSNTKVDKKVEPKSCDKTHTCPPCPAPELLGGPSVFLFPPKPKDTLMISRTPEVTCVVVDVSHEDPEVKFNWYVDGVEVHNAKTKPREEQYNSTYRVVSVLTVLHQDWLNGKEYKCKVSNKALPAPIEKTISKAKGQPREPQVYTLPPSREEMTKNQVSLTCLVKGFYPSDIAVEWESNGQPENNYKTTPPVLDSDGSFLYSKLTVDKSRWQQGNVFSCSVMHEALHNHYTQKSLSLSPGK light: MDIQMTQSPSSLSASVGDRVTITCRASQDVNTAVAWYQQKPGAPKLLIYSASFLYSGVPSRFSGSRSGTDFTLTISSLQPEDFATYYCQQHYTTPPTFGQGTKVEIKRTVAAPSVFIFPPSDEQLKSGTASVVCLLNNFYPREAKVQWKVDNALQSGNSQSVTEQDSKDSTYSLSSTLTLSKADYEKHKVYACEVTHQGLSSPVTKSFNRGEC | 0.236 | 77
7 | Conjugate 36: D04-Y180F404/K42/E161-LP20 (antibody, human IgG1, kappa, pAMF at K42 and E161 (printed * in the sequence), linked to LP20; pAMF at Y180 and F404 (printed * in the sequence), linked to LP20) heavy: MEVQLVESGGGLVQPGGSLRLSCAASGFNISDYDIHWVRQAPGKGLEWVGGIDPADGSTDYADSVKGRFTISADTSKNTAYLQMNSLRAEDTAVYYCARDYGVYDYWGQGTLVTVSSASTKGPSVFPLAPSSKSTSGGTAALGCLVKDYFPEPVTVSWNSGALTSGVHTFPAVLQSSGLSLSSVVTVPSSSLGTQTYICNVNHKPSNTKVDKKVEPKSCDKTHTCPPCPAPELLGGPSVFLFPPKPKDTLMISRTPEVTCVVVDVSHEDPEVKFNWYVDGVEVHNAKTKPREEQYNSTYRVVSVLTVLHQDWLNGKEYKCKVSNKALPAPIEKTISKAKGQPREPQVYTLPPSREEMTKNQVSLTCLVKGFYPSDIAVEWESNGQPENNYKTTPPVLDSDGSFLYSKLTVDKSRWQQGNVFSCSVMHEALHNHYTQKSLSLSPGK light: MDIQMTQSPSSLSASVGDRVTITCRASQDVNTAVAWYQQKPGAPKLLIYSASFLYSGVPSRFSGSRSGTDFTLTISSLQPEDFATYYCQQHYTTPPTFGQGTKVEIKRTVAAPSVFIFPPSDEQLKSGTASVVCLLNNFYPREAKVQWKVDNALQSGNSQSVTEQDSKDSTYSLSSTLTLSKADYEKHKVYACEVTHQGLSSPVTKSFNRGEC | 0.222 | 72
8 | Conjugate 38: D04-Y180F404/K42/E161-LP23 (antibody, human IgG1, kappa, pAMF at K42 and E161 (printed * in the sequence), linked to LP23; pAMF at Y180 and F404 (printed * in the sequence), linked to LP23) heavy: MEVQLVESGGGLVQPGGSLRLSCAASGFNISDYDIHWVRQAPGKGLEWVGGIDPADGSTDYADSVKGRFTISADTSKNTAYLQMNSLRAEDTAVYYCARDYGVYDYWGQGTLVTVSSASTKGPSVFPLAPSSKSTSGGTAALGCLVKDYFPEPVTVSWNSGALTSGVHTFPAVLQSSGLSLSSVVTVPSSSLGTQTYICNVNHKPSNTKVDKKVEPKSCDKTHTCPPCPAPELLGGPSVFLFPPKPKDTLMISRTPEVTCVVVDVSHEDPEVKFNWYVDGVEVHNAKTKPREEQYNSTYRVVSVLTVLHQDWLNGKEYKCKVSNKALPAPIEKTISKAKGQPREPQVYTLPPSREEMTKNQVSLTCLVKGFYPSDIAVEWESNGQPENNYKTTPPVLDSDGSFLYSKLTVDKSRWQQGNVFSCSVMHEALHNHYTQKSLSLSPGK light: MDIQMTQSPSSLSASVGDRVTITCRASQDVNTAVAWYQQKPGAPKLLIYSASFLYSGVPSRFSGSRSGTDFTLTISSLQPEDFATYYCQQHYTTPPTFGQGTKVEIKRTVAAPSVFIFPPSDEQLKSGTASVVCLLNNFYPREAKVQWKVDNALQSGNSQSVTEQDSKDSTYSLSSTLTLSKADYEKHKVYACEVTHQGLSSPVTKSFNRGEC | 0.108 | 64
